Here are results for one molecule from patent publication US20230365640A1.

“And” between values parts separate entries of the source, which are not always exact repeats. Equal entries are not always repeated.

The test concerns the target recombinant SARS-CoV-2 RBD (His-tagged SARS-CoV-2 RBD fusion protein) (SARS-CoV-2), P0DTC2. To be noted: remark: other sources report otherwise.

B1: DC-SIGN.Fc protein, Q9NNX6 59-404 (Fc fusion)
chain: QVSKVPSSISQEQSRQDAIYQNLTQLKAAVGELSEKSKLQEIYQELTQLKAAVGELPEKSKLQEIYQELTRLKAAVGELPEKSKLQEIYQELTWLKAAVGELPEKSKMQEIYQELTRLKAAVGELPEKSKQQEIYQELTRLKAAVGELPEKSKQQEIYQELTRLKAAVGELPEKSKQQEIYQELTQLKAAVERLCHPCPWEWTFFQGNCYFMSNSQRNWHDSITACKEVGAQLVVIKSAEEQNFLQLQSSRSNRFTWMGLSDLNQEGTWQWVDGSPLLPSFKQYWNRGEPNNVGEEDCAEFSGNGWNDDKCNLAKFWICKKSAASCSRDEEQFLSPAPATPNPPPA
In general, Kd refers to the free concentration of one partner at which half of the binding sites on the other are occupied at equilibrium, for simple one-to-one binding. As usually defined, the koff is the first-order rate constant of dissociation. What is called kon is a measure of how fast the partners come together. In the case of B1, the Kd is 18.7 µM and 16.1 µM; the koff is 0.000588 s⁻¹ and 0.000614 s⁻¹; the on-rate constant (kon) was 339 M⁻¹ s⁻¹.
